Data: article PMC4945075

Biological target: T1, His-tagged cyt-SpoIIE (cytosolic part of SpoIIE), fluorescently labeled (B. subtilis)
T1 sequence (P37475 whole entry, looked up): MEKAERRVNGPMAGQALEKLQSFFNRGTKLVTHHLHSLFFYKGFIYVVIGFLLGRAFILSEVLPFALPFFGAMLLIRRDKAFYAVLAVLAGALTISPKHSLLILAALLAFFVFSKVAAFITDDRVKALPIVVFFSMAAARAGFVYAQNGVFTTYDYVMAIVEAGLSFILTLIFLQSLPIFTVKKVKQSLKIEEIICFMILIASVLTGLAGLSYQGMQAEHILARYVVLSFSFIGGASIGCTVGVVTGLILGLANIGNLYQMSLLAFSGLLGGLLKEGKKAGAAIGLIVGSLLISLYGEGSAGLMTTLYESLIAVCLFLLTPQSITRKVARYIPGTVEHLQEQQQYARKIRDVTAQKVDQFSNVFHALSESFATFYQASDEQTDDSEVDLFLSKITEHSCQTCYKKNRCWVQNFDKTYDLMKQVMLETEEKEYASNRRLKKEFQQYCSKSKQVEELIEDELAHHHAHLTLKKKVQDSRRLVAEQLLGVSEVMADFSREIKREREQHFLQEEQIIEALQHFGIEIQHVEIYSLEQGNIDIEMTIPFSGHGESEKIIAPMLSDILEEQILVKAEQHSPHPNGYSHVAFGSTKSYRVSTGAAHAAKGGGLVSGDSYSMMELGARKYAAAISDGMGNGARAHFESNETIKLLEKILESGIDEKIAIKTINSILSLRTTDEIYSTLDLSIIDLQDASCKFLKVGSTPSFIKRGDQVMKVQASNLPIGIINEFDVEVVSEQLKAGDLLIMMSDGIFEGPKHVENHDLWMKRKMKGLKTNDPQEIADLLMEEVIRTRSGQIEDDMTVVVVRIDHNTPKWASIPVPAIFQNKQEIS
Experiment: MST; labeled cyt-SpoIIE constant at 34 μM, unlabeled cyt-RodZ titrated 6.7 nM to 221 μM; 25 mM Tris-HCl pH 8.0, 150 mM NaCl, 40 mM imidazole, 5% glycerol, 0.05% Tween-20; Monolith NT.115; 'preliminary Kd'

- Kd: 10 µM
B1: His6-tagged cyt-RodZ (cytosolic part of RodZ) (domain or fragment)
chain: MFVVTELGIRLKEAREEKAMSLDDLQAATKIQKRYLTALEEGNYDIIPGKFYVRAFIKQYAEAVGLDADQLFEEHKKDIPNTYHDDVSEKI
